Experimental data as given in patent US20220064332A1 (INSERM INSTITUT NATIONAL DE LA SANT ET DE LA RECHERCHE M …, published 2022).

Tests used:
[1] = target: T1, 14-kDa light chain GSTcath-D (UniProt P07339 65-162, limits assumed); assay: immunoprecipitation of GST-cath-D fusion fragments
T1 construct: domain: 14-kDa light chain; Produced in E. coli BL21

[2] = target: T2, 4-kDa GST-cath-D pro-fragment (UniProt P07339 21-64, limits assumed); assay: immunoprecipitation of GST-cath-D fusion fragments
T2 construct: domain: 4-kDa pro-fragment; Produced in E. coli BL21
T2 chain (looked up): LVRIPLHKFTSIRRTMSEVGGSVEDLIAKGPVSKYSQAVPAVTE

[3] = target: T3, human 52-kDa pro-cath-D secreted from MDA-MB-231 cells (human, UniProt P07339 21-412); assay: sandwich ELISA: M2E8 capture of pro-cath-D from MDA-MB-231 conditioned medium, serial dilutions of IgG, anti-human Fc-HRP
T3 construct: domain: 52-kDa pro-cath-D; Captured from conditioned medium by the M2E8 antibody in the sandwich ELISA; also called secreted human 52-kDa pro-cath-D
Protocol: Cells were cultured in DMEM with 10% fetal calf serum (FCS, GibcoBRL). To produce conditioned medium, cells were grown to 90% confluence in DMEM medium with 10% FCS, and conditioned medium was centrifuged at 800×g for 10 min. For sandwich ELISA, 96-well plates were coated with M2E8 antibody in PBS (500 ng/well) at 4° C. overnight. After blocking non-specific sites with PBST/1% BSA, conditioned medium was added at 4° C. for 2 h. […] Cath-D was quantified in TNBC cytosols by sandwich ELISA, as described above, after coating with the D7E3 antibody in PBS (200 ng/well) and with the M1G8 antibody conjugated to HRP (1/80), and using recombinant pro-cath-D (1.25-15 ng/ml) for reference (6). TNBC cytosols were previously prepared and frozen (25). GST-cath-D fusion proteins were produced in the E. coli B strain BL21 as described (9).

T1 sequence (P07339 65-162 limits assumed): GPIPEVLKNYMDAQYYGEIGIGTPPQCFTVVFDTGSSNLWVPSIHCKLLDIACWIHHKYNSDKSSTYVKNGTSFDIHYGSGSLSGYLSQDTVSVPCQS

B1: anti-cath-D antibody E2 (fully human IgG1λ) (antibody, V domains shown)
VH: EVQLVESGGSLVKPGGSLRLSCAASGFTFSNSYMNWVRQAPGKGLEWISYISGSSRYISYADFVKGRFTISRDNATNSLYLQMNSLRAEDTAVYYCVRSSNSYFGGGMDVWGRGTLVTVSS
VL: QSVLTQPASVSGSPGQSITISCAGTSSDVGGSYGVSWYQQHPGKAPKLMIYGDSYRPSGVSNRFSGSKSGNTASLTISGLQAEDEADYYCSSYTNYSTRVFGGGTKLAVL
[1]
  binding result: no binding
[2]
  binding result: no binding
[3]
  EC50: 1.2 nM
